Data reported in paper PMC11531568, “Single-molecule imaging and molecular dynamics simulations reveal early activation of the MET receptor in cells” (Nature Communications, 2024).
Positions count from the first letter of the chain named. Numbers in names are those of the source.

B1: InlB321 K280C variant (with C242A), fluorophore-labeled (domain or fragment)
chain: ETITVPTPIKQIFSDDAFAETIKDNLKKKSVTDAVTQNELNSIDQIIANNSDIKSVQGIQYLPNVTKLFLNGNKLTDIKPLANLKNLGWLFLDENKVKDLSSLKDLKKLKSLSLEHNGISDINGLVHLPQLESLYLGNNKITDITVLSRLTKLDTLSLEDNQISDIVPLAGLTKLQNLYLSKNHISDLRALAGLKNLDVLELFSQEALNKPINHQSNLVVPNTVKNTDGSLVTPEIISDDGDYECPNVKWHLPEFTNEVSFIFYQPVTIGKAKARFHGRVTQPLKE
modifications: Cy3B or ATTO 647N attached by maleimide chemistry to the single cysteine at position 280
notes: Internalin B (InlB), invasion protein of Listeria monocytogenes, amino acids 36-321 of the full-length InlB (cap, leucine-rich repeat and inter-repeat region); The donor-labeled (Cy3B) and acceptor-labeled (ATTO 647N) batches of this variant are written as one molecule; Vector pETM30; also called T variant; tail
B2: InlB321 K64C variant (with C242A), fluorophore-labeled (domain or fragment)
chain: B1 chain with K29C, C245K
modifications: Cy3B or ATTO 647N attached by maleimide chemistry to the single cysteine at position 64
notes: Internalin B (InlB), invasion protein of Listeria monocytogenes, amino acids 36-321 of the full-length InlB (cap, leucine-rich repeat and inter-repeat region); The donor-labeled (Cy3B) and acceptor-labeled (ATTO 647N) batches of this variant are written as one molecule; Vector pETM30; also called H variant; head

Target: the molecule itself
Assay: single-molecule photobleaching step analysis; U-2 OS cells labeled with a single Cy3B-labeled InlB321 variant; number of InlB321 in one spot on the plasma membrane

Row | Protein | stoichiometry N
1 | B1 | 2
2 | B2 | 2
